Results on six molecules are retold here after US20220153832A1 (PIONYR IMMUNOTHERAPEUTICS, published 2022).

The target of assay [1] is T1, N-terminal his-tagged mouse MARCO protein, recombinant (mouse, UniProt Q60754 150-518).
T1 construct: The entry holds the His tag, the CLD and the SRCR domain; also called mMARCO (RG3016); PI-RG-3016
T1 sequence: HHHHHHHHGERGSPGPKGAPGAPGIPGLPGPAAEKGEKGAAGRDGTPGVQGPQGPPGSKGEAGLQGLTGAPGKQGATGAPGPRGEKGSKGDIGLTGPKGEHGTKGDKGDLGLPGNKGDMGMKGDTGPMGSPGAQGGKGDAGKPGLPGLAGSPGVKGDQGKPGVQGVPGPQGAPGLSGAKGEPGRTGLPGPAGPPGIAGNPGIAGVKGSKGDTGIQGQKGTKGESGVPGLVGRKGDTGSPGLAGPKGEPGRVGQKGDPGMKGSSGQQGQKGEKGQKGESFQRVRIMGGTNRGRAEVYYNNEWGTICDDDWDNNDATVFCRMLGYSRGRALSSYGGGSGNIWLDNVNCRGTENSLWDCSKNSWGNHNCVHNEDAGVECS
Nature of the assay: Biacore; antigen construct not stated. (In general: SPR reads the build-up and loss of mass on a sensor chip optically.)

The target in assay [2] is T2, Human Macrophage Receptor with Collagenous Structure (MARCO), full length, on cells (human, UniProt Q9UEW3 1-520).
T2 construct: the cell type is named under assay; also called huMARCO; HuMARCO
T2 sequence: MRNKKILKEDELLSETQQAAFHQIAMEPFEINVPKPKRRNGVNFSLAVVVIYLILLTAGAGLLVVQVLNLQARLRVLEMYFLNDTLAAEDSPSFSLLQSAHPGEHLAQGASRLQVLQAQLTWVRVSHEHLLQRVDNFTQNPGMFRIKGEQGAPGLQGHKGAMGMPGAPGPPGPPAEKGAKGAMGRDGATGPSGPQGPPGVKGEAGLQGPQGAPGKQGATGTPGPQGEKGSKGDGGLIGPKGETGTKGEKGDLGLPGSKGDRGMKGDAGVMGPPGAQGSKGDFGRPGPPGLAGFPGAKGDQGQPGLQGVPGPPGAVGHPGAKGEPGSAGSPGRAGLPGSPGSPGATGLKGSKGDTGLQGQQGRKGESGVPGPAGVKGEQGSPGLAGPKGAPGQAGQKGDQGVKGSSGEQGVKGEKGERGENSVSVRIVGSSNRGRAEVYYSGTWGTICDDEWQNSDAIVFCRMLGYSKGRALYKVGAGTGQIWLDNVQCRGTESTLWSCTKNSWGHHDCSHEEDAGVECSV
Nature of the assay: cell-based competition with AF488 E. coli binding to cells expressing MARCO. As to the method:
Zombie NIR viability dye (BioLegend), prepared by diluting the stock 1000-fold in D-PBS, was added to the cells and incubated for 10 min at RT in the dark. The reaction was quenched by adding 1 m of 4× Staining buffer (2% FBS in DBPS containing Ca2+), followed by centrifugation at 400×g for 5 min at 4° C. Cells were then plated in V-shaped 96 well plates at a density of 100,000 cells. A488-fluorescently labeled bacteria (E. coli from Invitrogen) was added at 10 μg/ml with the anti-human MARCO antibodies of interest for a 30 min incubation at 37 C. Plates were then washed twice followed by resuspension in 100 ul of staining buffer for acquisition on the flow cytometer (Attune NxT, Life Technologies). Flow cytometry data were analyzed using FlowJo software (version 10.6.1) and data were processed and further analyzed in Microsoft Excel and GraphPad Prism software (version 8).

Assay [3] has as its target T3, N-terminally polyhistidine tagged human MARCO ECD (147-520), recombinant (human, UniProt Q9UEW3 147-520).
T3 construct: also called PI-RG-3000; recombinant human MARCO; not shown: N-terminal polyhistidine tag
T3 sequence: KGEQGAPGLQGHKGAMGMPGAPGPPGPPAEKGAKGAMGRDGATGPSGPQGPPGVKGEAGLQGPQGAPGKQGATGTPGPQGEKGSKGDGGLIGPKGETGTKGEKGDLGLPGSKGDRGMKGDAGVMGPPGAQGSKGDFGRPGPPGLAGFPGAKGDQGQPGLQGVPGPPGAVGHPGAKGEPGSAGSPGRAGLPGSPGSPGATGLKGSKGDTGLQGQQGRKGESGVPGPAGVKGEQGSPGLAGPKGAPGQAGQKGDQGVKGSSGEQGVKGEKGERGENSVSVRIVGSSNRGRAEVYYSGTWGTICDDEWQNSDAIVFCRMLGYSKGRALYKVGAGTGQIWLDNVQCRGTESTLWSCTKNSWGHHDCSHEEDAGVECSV
Nature of the assay: ELISA on recombinant human MARCO, 2 mM EDTA. As to the method: After the plates were incubated at room temperature for 1 hour or 4° C. overnight, the plates were wash 3 times with ELISA wash buffer (PBS/0.05% TWEEN-20), then hybridoma supernatant (1:5 dilution) or purified antibody (1 ug) was diluted in DPBS/Ca2+/2% FBS, DPBS without Ca2+/2 mM EDTA/2% FBS, DPBS without Ca2+/10 mM EDTA/2% FBS, and DPBS without Ca2+/50 mM EDTA/2% FBS. Plates again were incubated at room temperature for 1 hour.
A general note: In an ELISA, binding on a coated surface is turned into a signal by an enzyme label.

B1: PI-HX-3021 (antibody, V domains shown)
VH: QVRLVQSGTALVRPGASVRMSCTASGYSFTDYWVSWVKQSHGQSLEWIGEIYPNSGTTNFNEKFEGKATLTVDKSTSTAYMELSRLTSEDSAIYYCTGEGTFDYWGQGVMVTVSS
VL: EIVLTQSPTTMAASPGEKVTITCRPSSSLSNMHWFQQKSGTSPKPWIYDTSKLASGVPDRFSGSGSGTSYSLTISSMEAEDAATYYCLQRSSYPPTFGAGTKLELK
notes: Rat IgG2a hybridoma antibody; Not the effector dead PI-3021; also called PI-3007 (name of the recombinant form)
The term koff denotes the rate constant with which the complex falls apart. As usually defined, the kon is the second-order rate constant of association. B1: in assay [1], the off-rate (koff) is 2.11e-05 s⁻¹ and the kon amounted to 191000 M⁻¹ s⁻¹.

B2: PI-HX-3016 (antibody, rat IgG1, V domains shown)
VH: EVQLVESGGGLVKPGASLKLSCVASGFTFSDDWMNWVRQTPGKAMEWIGDIKYDGSYTNYVPSLKNRLTISRDNAKNTLYLQMTNVRSEDTATYYCTSGGVFDYWGQGVMVTVSS
VL: EIVLSQSPTTMAASPGEKVTITCRASSSVSYMHWFQQKSGTSPKPWIYDTSKLASGVPDRFSGSGSGTSYSLTISSMEAEDAATYYCLQRSGYPPTFGAGTKLEVK
notes: Rat IgG1 hybridoma antibody
As to B2, in assay [1], the koff was determined as 1.27e-06 s⁻¹ and the kon turned out to be 184000 M⁻¹ s⁻¹.

B3: PI-3010-AB (antibody, human IgG1, kappa)
heavy: not shown
light: DIQMTQSPASLSTSLGETVSIECLASEGISNDLAWYQQKSGKSPQLLIYAASRLQDGVPSRFSGSGSGTRYSLKISGMQPEDEADYFCQQSYKYPLTFGSGTKLEIKRTVAAPSVFIFPPSDEQLKSGTASVVCLLNNFYPREAKVQWKVDNALQSGNSQESVTEQDSKDSTYSLSSTLTLSKADYEKHKVYACEVTHQGLSSPVTKSFNRGEC
A word on the EC50: it is the concentration needed to bring the measured effect to its halfway point. Higher therefore signals lower potency in that assay. As to B3, in assay [2], it took 0.44 nM to reach a half-maximal effect (EC50).

B4: PI-HX-3031 (antibody)
heavy: QVQLKESGPGLVQPSQTLSLTCTVSGFSLTSYHVSWVRQPPGKGLEWMGAIWTGGSIAYNSLLKSRLSISRDTSKSQVFLKMNSLQTEDTATYYCARDLSDYYSSYTSFDYWGQGVMVTVSTAETTAPSVYPLAPGTALKSNSMVTLGCLVKGYFPEPVTVTWNSGALSSGVHTFPAVLQSGLYTLTSSVTVPSSTWSSQAVTCNVAHPASSTKVDKKIVPRECNPCGCTGSEVSSVFIFPPKTKDVLTITLTPKVTCVVVDISQNDPEVRFSWFIDDVEVHTAQTHAPEKQSNSTLRSVSELPIVHRDWLNGKTFKCKVNSGAFPAPIEKSISKPEGTPRGPQVYTMAPPKEEMTQSQVSITCMVKGFYPPDIYTEWKMNGQPQENYKNTPPTMDTDGSYFLYSKLNVKKETWQQGNTFTCSVLHEGLHNHHTEKSLSHSP
light: DIQMTQSPASLSTSLGETVSIECLASEGISNDLAWYQQKSGKSPQLLIYAASRLQDGVPSRFSGSGSGTRYSLKISGMQPEDEADYFCQQSYKYPLTFGSGTKLEIKRADAAPTVSIFPPSTEQLATGGASVVCLMNNFYPRDISVKWKIDGTERRDGVLDSVTDQDSKDSTYSMSSTLSLTKADYESHNLYTCEVVHKTSSSPVVKSFNRNEC
notes: Parental rat hybridoma, rat IgG2a
As for B4, the “ELISA signal (A450)” value in assay [3] turned out to be 0.0678.

B5: PI-HX-3043 (antibody, rat IgG2a)
heavy: QVNLLQSRAALVKPGASVKLSCKASGYTFTDYYLHWVKQSHAKSLEWIGYINPNNAYTSYNEKFKSKATLTVDKSTNTAYMELSRLTSADSATYYCARDTTDYYNLHFAYWGQGTLVTVSSAETTAPSVYPLAPGTALKSNSMVTLGCLVKGYFPEPVTVTWNSGALSSGVHTFPAVLQSGLYTLTSSVTVPSSTWSSQAVTCNVAHPASSTKVDKKIVPRECNPCGCTGSEVSSVFIFPPKTKDVLTITLTPKVTCVVVDISQNDPEVRFSWFIDDVEVHTAQTHAPEKQSNSTLRSVSELPIVHRDWLNGKTFKCKVNSGAFPAPIEKSISKPEGTPRGPQVYTMAPPKEEMTQSQVSITCMVKGFYPPDIYTEWKMNGQPQENYKNTPPTMDTDGSYFLYSKLNVKKETWQQGNTFTCSVLHEGLHNHHTEKSLSHSP
light: DIQMTQSPASLSASLGETVSIECLTSEGISNDLAWYQQKSGKSPQLLIYDASRLEDGVPSRFSGSGSGTRYSLKISGMQTEDEADYFCQQSYKYPLTFGSGTKLEIKRADAAPTVSIFPPSTEQLATGGASVVCLMNNFYPRDISVKWKIDGTERRDGVLDSVTDQDSKDSTYSMSSTLSLTKADYESHNLYTCEVVHKTSSSPVVKSFNRNEC
notes: as for B4
Consider B5, for which the “ELISA signal (A450)” value in assay [3] was 0.0595.

B6: PI-3015-AB (antibody, human IgG1, kappa)
heavy: not shown
light: DIQMTQSPSSLSASVGDRVTITCRASEGISNDLAWYQQKPGKAPKLLIYAASRLQSGVPSRFSGSGSGTDYTLTISSMQPEDFATYYCQQSYKYPLTFGQGTKLEIKRTVAAPSVFIFPPSDEQLKSGTASVVCLLNNFYPREAKVQWKVDNALQSGNSQESVTEQDSKDSTYSLSSTLTLSKADYEKHKVYACEVTHQGLSSPVTKSFNRGEC
As for B6, the EC50 in assay [2] was 0.5 nM.
